From article PMC4191427, “Molecular mechanisms of two-component system RhpRS regulating type III secretion system in Pseudomonas syringae” (Nucleic Acids Research, 2014) come the findings set out here.

Series [1] relates to T1, RhpRpsph (Pseudomonas syringae pv. phaseolicola), ORF:976030cf.
T1 sequence: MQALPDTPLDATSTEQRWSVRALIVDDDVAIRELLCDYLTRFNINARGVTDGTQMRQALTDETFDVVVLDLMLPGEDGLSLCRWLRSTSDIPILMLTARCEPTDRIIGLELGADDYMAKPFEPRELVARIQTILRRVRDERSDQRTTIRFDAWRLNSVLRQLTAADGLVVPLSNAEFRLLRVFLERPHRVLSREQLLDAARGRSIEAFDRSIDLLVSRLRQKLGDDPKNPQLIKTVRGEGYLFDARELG
Briefly: EMSA. The following applies: 10 mM Tris-HCl pH 7.4, 50 mM KCl, 5 mM MgCl2, 10% glycerol, 3 ug/ml sheared salmon sperm DNA, room temperature.

Another series concerns the target T2, RhpR (Pseudomonas syringae, UniProt A0ABY1U8E6).
T2 construct: gene virG; full-length, N-terminal His6 tag (pMCSG19, MBP cut off in vivo), E. coli BL21 star (DE3)
Description: […] phosphorylation, autoradiography. Type of series: biochemical. To be noted: phosphodonor; covalent phosphorylation (putative site Asp70); labelled compound; 37 °C, 30 min.

The subject of series [2] is RhpR (Pseudomonas syringae pv. tomato DC3000?). Briefly: EMSA. To be noted: 10 mM Tris-HCl pH 7.4, 50 mM KCl, 5 mM MgCl2, 10% glycerol, 3 ug/ml sheared salmon sperm DNA, room temperature.
Series [3] has as its system T3, RhpR (Pseudomonas syringae pv. tomato DC3000?), ORF:d96f1ca2.
T3 sequence: T1 sequence with D6E, T7N, P8T, E15D, T53S
Briefly: EMSA. To be noted: 10 mM Tris-HCl pH 7.4, 50 mM KCl, 5 mM MgCl2, 10% glycerol, 3 ug/ml sheared salmon sperm DNA, room temperature.

Numbering of substitutions follows the chain as printed.

In the case of “TTCGATACTTAGCGGATCAGGCATTATCGCATCGCCGCAAAAAATAATCCTGCCGCCGGGAGGAGAGCACACGGTTAGATTGCGCTCGTTGTCGAGTCCAAATAAAGAGTTGTTATATCGTGTATATGTCGAGACTGTAGCTGCGAATACGGATGAAGATCATGTGGTTACAGAGGGGGGTGGCAGCGTTGGTATTAGTCTAACATGGGGG (double strand) [PSPPH0775]”, the binding entry in series [1] is on record as “no binding”. As to `CC(=O)OP(=O)(O)O` [acetyl phosphate], the “32P phosphorylation, autoradiography” value at RhpR was “The phosphorylated RhpR was readily detected”.

Regarding rhpR promoter EMSA probe, the binding signal (fold affinity vs unphosphorylated RhpR) in series [2] came out at 8. In addition, in series [2] (scale: fold affinity vs unphosphorylated RhpR), the binding signal worked out at 8.

Consider “ATATTACCGCGCAAACCATCGACCAGGATTTTGCCCGCAACGGCAAGATTCACCGCGCCTGGAAAATCATGGCGCGTGCCTGATACGGTGTGTGATGAGCTTGCCTGTAACAGTTTTGTACAGGTTTGCTCATCGCTCCCTATGAAAATTACTGGCGAATAGCTATAACAGAAGTCATAGCCAGCTTGACGCTTCAGCATGTTGGCGTCATGAGTTTCTG (double strand) [rlmL]”, for which the binding result in series [1] is recorded as “binds”. Still for that read-out and setting: under “TACAAGGGGTAGGGCTGTGACTGTCAGAAAGGTCCTATGCCCCGACACCTGCACGGTATAGAACACGCCAAACATCACGGCCATACGCCACCATCCGCTCTCCCGAATGTTCAGCAAAAGTACAGATACATCCTGCTACAACAATCCTTGCGCAGAAACATTTGAGCGACTGGGCACTGCGTTCAGCGCCACTGCACCTGCGGATGATTCCGAGGAGGCAACATGTTCTTAAGGTATGGGGTATTGATCGCATCACTTGCGATAGCGTCA (double strand) [PSPPH1086]” stands “binds”; under “CGCCTGGCGAATGTCTTATGGCAGCTTATTCGCAGCAGCAACTCATAGGCATCGGGGGGCTATCGGTCGATCCGTATATCAAAACTGATACCGCAAGGCTAAGGCGTGTGTACGTAACACCTACTGTAAGGAGGCAACATGTAGGTCAGGCGCTGGTAAAAGCATTGATTGCGCAGGCCGCGCTTCGTTTTCAGTGCGTGCGTCTTTCCACTGACACCTCTGAAGGCGATGCGTTTTACCTGCGTTGCGG (double strand) [PSPPH4977]”, “binds”. Still for that read-out and setting: under “GGGAACAGTTTGCGTTTTTCAGCCAGCCTCACTCATTAGCTGGATAAGCAGACAGGCGTTCTTTCACTTGATTCCGGTACAAGTTCTCATAACGATTGAAAGCCTGCTGCATCGATTCATCTATCCATGTATAAATGCTGTTACACATTGGCCCATCTCTGGAGACTCAGCGCATGCGTTACGCGCTCGATCATAAGGCCCAAACCCATCAACGTATCGTCAAGGAAGCGTCCATGCGCTTTCGTCGCGATGGCATTGGTGCTACGGGCTTACAACCTT (double strand) [PSPPH3654]” stands “binds”. Turning to “GCAGGAACCCCTCTCGTTATCGGGTTGTCGACAACAGACTGGCTGTTAAAACCTGTTCAGAGTGTGAACAGAGCCTGGACACCTGAATTTTCATTACGAGAGGTTGCC (double strand) [PSPTO_1489 promoter]”, the binding entry in series [3] is on record as “no binding”.
